Source: IntAct's records for PubMed 17891150

B1: Trinucleotide repeat-containing gene 6B protein (Homo sapiens), Q9UPQ9-2 (parent)
chain: MQTNEGEVSEESSSKVEQEDFVMEGHGKTPPPGEESKQEKEQEREEQLMEDKKRKKEDKKKKEATQKVTEQKTKVPEVTKPSLSQPTAASPIGSSPSPPVNGGNNAKRVAVPNGQPPSAARYMPREVPPRFRCQQDHKVLLKRGQPPPPSCMLLGGGAGPPPCTAPGANPNNAQVTGALLQSESGTAPVWSKSTPPAPDNGTSAWGEPNESSPGWGEMDDTGASTTGWGNTPANAPNAMKPNSKSMQDGWGESDGPVTGARHPSWEEEEDGGVWNTTGSQGSASSHNSASWGQGGKKQMKCSLKGGNNDSWMNPLAKQFSNMGLLSQTEDNPSSKMDLSVGSLSDKKFDVDKRAMNLGDFNDIMRKDRSGFRPPNSKDMGTTDSGPYFEKGGSHGLFGNSTAQSRGLHTPVQPLNSSPSLRAQVPPQFISPQVSASMLKQFPNSGLSPGLFNVGPQLSPQQIAMLSQLPQIPQFQLACQLLLQQQQQQQLLQNQRKISQAVRQQQEQQLARMVSALQQQQQQQQRQPGMKHSPSHPVGPKPHLDNMVPNALNVGLPDLQTKGPIPGYGSGFSSGGMDYGMVGGKEAGTESRFKQWTSMMEGLPSVATQEANMHKNGAIVAPGKTRGGSPYNQFDIIPGDTLGGHTGPAGDSWLPAKSPPTNKIGSKSSNASWPPEFQPGVPWKGIQNIDPESDPYVTPGSVLGGTATSPIVDTDHQLLRDNTTGSNSSLNTSLPSPGAWPYSASDNSFTNVHSTSAKFPDYKSTWSPDPIGHNPTHLSNKMWKNHISSRNTTPLPRPPPGLTNPKPSSPWSSTAPRSVRGWGTQDSRLASASTWSDGGSVRPSYWLVLHNLTPQIDGSTLRTICMQHGPLLTFHLNLTQGTALIRYSTKQEAAKAQTALHMCVLGNTTILAEFATDDEVSRFLAQAQPPTPAATPSAPAAGWQSLETGQNQSDPVGPALNLFGGSTGLGQWSSSAGGSSGADLAGASLWGPPNYSSSLWGVPTVEDPHRMGSPAPLLPGDLLGGGSDSI

Variants of: B1
Settings: with ago2_human AGO2, Q9UKV8
Sequence of ago2_human AGO2, Q9UKV8 (Q9UKV8 whole entry): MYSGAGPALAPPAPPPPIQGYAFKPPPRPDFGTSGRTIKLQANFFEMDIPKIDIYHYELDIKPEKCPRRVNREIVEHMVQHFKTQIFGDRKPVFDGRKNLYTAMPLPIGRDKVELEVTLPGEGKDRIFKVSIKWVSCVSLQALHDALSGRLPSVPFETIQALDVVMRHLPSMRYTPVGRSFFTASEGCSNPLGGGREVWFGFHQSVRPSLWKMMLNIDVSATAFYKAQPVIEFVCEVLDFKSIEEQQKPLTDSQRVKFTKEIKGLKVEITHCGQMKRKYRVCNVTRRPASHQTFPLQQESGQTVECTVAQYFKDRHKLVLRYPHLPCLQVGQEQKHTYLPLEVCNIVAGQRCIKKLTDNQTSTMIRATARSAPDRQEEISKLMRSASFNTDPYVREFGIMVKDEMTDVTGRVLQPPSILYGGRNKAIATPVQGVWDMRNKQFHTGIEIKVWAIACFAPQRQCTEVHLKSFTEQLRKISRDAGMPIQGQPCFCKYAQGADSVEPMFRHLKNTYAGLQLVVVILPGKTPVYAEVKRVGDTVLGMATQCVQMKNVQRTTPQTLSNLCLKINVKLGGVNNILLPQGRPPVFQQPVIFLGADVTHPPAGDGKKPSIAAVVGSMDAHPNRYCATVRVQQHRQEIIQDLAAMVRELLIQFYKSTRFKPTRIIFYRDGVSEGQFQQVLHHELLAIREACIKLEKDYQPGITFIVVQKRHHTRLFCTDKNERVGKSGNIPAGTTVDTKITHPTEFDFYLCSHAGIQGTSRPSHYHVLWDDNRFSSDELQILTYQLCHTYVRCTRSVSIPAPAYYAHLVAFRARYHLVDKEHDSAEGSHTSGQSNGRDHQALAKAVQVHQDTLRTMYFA

Effect of a mutation on the interaction, disrupting interaction:
W205F
W215F
W205A;W215A
